These results are taken from patent publication US20230203196A1 (MABWELL THERAPEUTICS, published 2023).

B1: humanized anti-TMPRSS6 antibody variant hzMWTx-003Var (antibody, human IgG1, kappa, L234A L235A, V domains shown)
VH: QVQLVQSGAEVKKPGASVKVSCKASGFNIEDYYMHWVRQAPGQRLEWMGRIDPEDAETTYSPKFQGRVTIIPDTSANTAYMELSSLRSEDTAVYYCARSIYLDPMDYWGQGTLVTVSS
VL: DIQMTQSPKSLSASVGDRVTITCRASQDVTTALAWYQQKPGQSPKLLIYWATTRHSGVPSRFSGSGSGTDFTLTISSLQPEDFATYYCQQHYSTPYTFGQGTKLEIKR
B2: MWTx-003 anti-TMPRSS6 antibody (antibody, mouse IgG2b, kappa, V domains shown)
VH: EVQLQQSGAELVKPGASVKLSCTASGFNIEDYYIHWVKERTEQGLEWIGRIDPEDGETTYAPQFQGKATIIPDTSSNTAYMQLSSLTSEDAAVYYCARSIYLDPMDYWGQGTSVTVSS
VL: DIVMTQSHKFMSTSVGDRVSITCKASQDVTTAVAWYQQKPGQSPKILIYWATTRHTGVPDRFTGSISGTTYILTISSVQAEDLALYYCQQHYSTPYTFGGGTKLEIKR
B3: humanized anti-TMPRSS6 antibody variant hzMWTx-002Var (antibody, human IgG1, kappa, N297A, V domains shown)
VH: EVQLVQSGAEVKKPGASVKVSCKASGFNIKDYYIHWVRQATGQGLEWMGRIDPEDAESEYAPKFQGRVTITADTSTDTAYMELSSLRSEDTAVYYCTRGDSMMVTYFDYWGQGTLVTVSS
VL: DIQMTQSPSSLSASVGDRVTITCKASQDVSTAVAWYQQKPGKAPKLLIYWAFTRHTGVPSRFSGSGSGTDYALTISSLQPEDFATYYCQQHYRSPWTFGGGTKVEIKR
B4: MWTx-001 anti-TMPRSS6 antibody (antibody, mouse IgG2a, kappa, V domains shown)
VH: QVQLQQPGAELAKPGASVKMSCKASGYTFTSYWITWVKQRPGQDLEWIGNIYPGSGSTYYNEKFKSKATLTVDTSSRTAYMQLSSLTSADSAVYYCAPYDSDYAMDYWGQGTSVTVSS
VL: DIKMTQSPSSMYASLGERVTITCKASQDINNYLSWFQQKPGKSPKTLIYRANRLVDGVPSRVSGSGSGQDYSLTISSLEYEDVGIYFCLQYDEFPLTFGAGTKLELKR
B5: humanized anti-TMPRSS6 antibody variant hzMWTx-001Var (antibody, human IgG1, kappa, N297A, V domains shown)
VH: EVQLVQSGAEVKKPGASVKVSCKASGYTFTSYWITWVRQAPGQRLEWIGNIYPGSGSTYYNEKFKSKATITRDTSSRTAYMELSSLRSEDTAVYYCAPYDADYAMDYWGQGTLVTVSS
VL: DIQMTQSPSSLSASVGDRVTITCKASQDISNYLSWFQQKPGKAPKLLIYRANRLVEGVPSRFSGSGSGTDFTLTISSLQPEDFATYFCLQYDEFPLTFGGGTKVEIKR

The target of the experiment is T1, TMPRSS6 expressed in transfected HepG2 cells (UniProt Q8IU80 1-811, limits assumed).
T1 sequence (looked up): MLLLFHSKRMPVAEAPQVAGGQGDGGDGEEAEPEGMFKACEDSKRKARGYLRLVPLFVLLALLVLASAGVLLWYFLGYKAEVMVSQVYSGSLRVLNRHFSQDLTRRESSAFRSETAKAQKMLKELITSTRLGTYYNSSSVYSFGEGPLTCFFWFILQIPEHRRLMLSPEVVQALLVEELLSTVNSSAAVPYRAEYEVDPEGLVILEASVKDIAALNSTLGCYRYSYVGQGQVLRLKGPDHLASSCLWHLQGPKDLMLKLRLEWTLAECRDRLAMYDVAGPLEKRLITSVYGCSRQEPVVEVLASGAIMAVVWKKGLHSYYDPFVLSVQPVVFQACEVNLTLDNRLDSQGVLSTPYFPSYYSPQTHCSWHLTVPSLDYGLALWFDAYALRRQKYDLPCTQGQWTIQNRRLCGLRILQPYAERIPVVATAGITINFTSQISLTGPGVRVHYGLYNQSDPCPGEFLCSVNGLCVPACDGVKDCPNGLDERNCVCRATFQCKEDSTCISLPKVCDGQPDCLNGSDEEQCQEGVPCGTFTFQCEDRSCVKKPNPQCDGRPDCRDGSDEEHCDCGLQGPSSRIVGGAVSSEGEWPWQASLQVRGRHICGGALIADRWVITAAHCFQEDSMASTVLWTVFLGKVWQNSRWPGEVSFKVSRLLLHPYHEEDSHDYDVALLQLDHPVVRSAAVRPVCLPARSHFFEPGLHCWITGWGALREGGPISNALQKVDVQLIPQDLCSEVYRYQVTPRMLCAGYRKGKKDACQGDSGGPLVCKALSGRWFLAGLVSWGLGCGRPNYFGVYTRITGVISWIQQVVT
Kind of experiment: cell-based or functional assay.
Turning to B1, the “HAMP promoter activity (HAMP-luciferase reporter assay in HepG2 cells expressing TMPRSS6), EC50” value worked out at 0.3 µg/mL.
The result for B2 reads 2 µg/mL; that for B3, 0.3 µg/mL.
As for B4, the “HAMP promoter activity (HAMP-luciferase reporter assay in HepG2 cells expressing TMPRSS6), EC50” value amounted to 3 µg/mL.
The result for B5 reads 0.8 µg/mL.
